Results taken from the supplement of paper PMC9112550, “Optimization of the antimicrobial peptide Bac7 by deep mutational scanning” (BMC Biology, 2022).

System: Escherichia coli TOP10
Test: shrunken log2 fold change of peptide-encoding DNA abundance (4.5 h post-induction vs induction); higher = less antimicrobial activity (less host growth inhibition)
Settings: time post-induction: 4.5 h; library: site-saturation at positions 5, 18, 19, 20
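Also: peptides expressed intracellularly from a pBAD plasmid library in pooled LB shake-flask culture, induced with 0.3% L-arabinose, DNA abundance read by NGS, three biological replicates, DESeq2 with apeglm shrinkage.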

RRIRKRPPRLPRPRPRPVFAPRP
shrunken log2 fold change: 2.02

RRIRKRPPRLPRPRPRPVFCPRP
shrunken log2 fold change: -0.126

RRIRKRPPRLPRPRPRPVFMPRP
shrunken log2 fold change: 0.138

RRIRKRPPRLPRPRPRPVGKPRP
shrunken log2 fold change: -0.163

RRIRKRPPRLPRPRPRPVGLPRP
shrunken log2 fold change: 0.174

RRIRKRPPRLPRPRPRPVHDPRP
shrunken log2 fold change: 0.0707

RRIRKRPPRLPRPRPRPVHQPRP
shrunken log2 fold change: 0.305

RRIRKRPPRLPRPRPRPVIPPRP
shrunken log2 fold change: -0.26

RRIRKRPPRLPRPRPRPVLEPRP
shrunken log2 fold change: 0.475

RRIRKRPPRLPRPRPRPVLLPRP
shrunken log2 fold change: 0.122

RRIRKRPPRLPRPRPRPVMDPRP
shrunken log2 fold change: -0.0489

RRIRKRPPRLPRPRPRPVMIPRP
shrunken log2 fold change: 0.0956

RRIRKRPPRLPRPRPRPVSRPRP
shrunken log2 fold change: 0.652

RRIRKRPPRLPRPRPRPVTGPRP
shrunken log2 fold change: -0.0771

RRIRKRPPRLPRPRPRPVVNPRP
shrunken log2 fold change: 0.000998

RRIRKRPPRLPRPRPRPVYKPRP
shrunken log2 fold change: 0.0665

RRIRKRPPRLPRPRPRPVYWPRP
shrunken log2 fold change: -0.0795

RRIRKRPPRLPRPRPRPWADPRP
shrunken log2 fold change: -0.017

RRIRKRPPRLPRPRPRPWCLPRP
shrunken log2 fold change: -0.503

RRIRKRPPRLPRPRPRPWGEPRP
shrunken log2 fold change: 0.539

RRIRKRPPRLPRPRPRPWGHPRP
shrunken log2 fold change: -0.0374

RRIRKRPPRLPRPRPRPWGLPRP
shrunken log2 fold change: -0.22

RRIRKRPPRLPRPRPRPWGRPRP
shrunken log2 fold change: 0.179

RRIRKRPPRLPRPRPRPWICPRP
shrunken log2 fold change: 0.044

RRIRKRPPRLPRPRPRPWIGPRP
shrunken log2 fold change: 0.0664

RRIRKRPPRLPRPRPRPWKVPRP
shrunken log2 fold change: -0.000777

RRIRKRPPRLPRPRPRPWLEPRP
shrunken log2 fold change: -0.00226

RRIRKRPPRLPRPRPRPWLTPRP
shrunken log2 fold change: 0.0883

RRIRKRPPRLPRPRPRPWMKPRP
shrunken log2 fold change: -0.0454

RRIRKRPPRLPRPRPRPWNQPRP
shrunken log2 fold change: -0.0169

RRIRKRPPRLPRPRPRPWQFPRP
shrunken log2 fold change: 0.157

RRIRKRPPRLPRPRPRPWQPPRP
shrunken log2 fold change: 0.0588

RRIRKRPPRLPRPRPRPWRFPRP
shrunken log2 fold change: 0.234

RRIRKRPPRLPRPRPRPWSAPRP
shrunken log2 fold change: 0.0935

RRIRKRPPRLPRPRPRPWSVPRP
shrunken log2 fold change: -0.0212

RRIRKRPPRLPRPRPRPWSYPRP
shrunken log2 fold change: -0.528

RRIRKRPPRLPRPRPRPWTIPRP
shrunken log2 fold change: 0.0185

RRIRKRPPRLPRPRPRPWVAPRP
shrunken log2 fold change: 0.282

RRIRKRPPRLPRPRPRPWVTPRP
shrunken log2 fold change: 0.000269

RRIRKRPPRLPRPRPRPWYFPRP
shrunken log2 fold change: 0.0699

RRIRKRPPRLPRPRPRPWYKPRP
shrunken log2 fold change: -0.0194

RRIRKRPPRLPRPRPRPYETPRP
shrunken log2 fold change: 0.00149

RRIRKRPPRLPRPRPRPYFFPRP
shrunken log2 fold change: 0.168

RRIRKRPPRLPRPRPRPYGRPRP
shrunken log2 fold change: -0.0362

RRIRKRPPRLPRPRPRPYGYPRP
shrunken log2 fold change: -0.0282

RRIRKRPPRLPRPRPRPYIIPRP
shrunken log2 fold change: -0.0823

RRIRKRPPRLPRPRPRPYIKPRP
shrunken log2 fold change: -0.28

RRIRKRPPRLPRPRPRPYIMPRP
shrunken log2 fold change: -0.153

RRIRKRPPRLPRPRPRPYIWPRP
shrunken log2 fold change: -0.126

RRIRKRPPRLPRPRPRPYKFPRP
shrunken log2 fold change: -0.0374

RRIRKRPPRLPRPRPRPYLEPRP
shrunken log2 fold change: 0.0252

RRIRKRPPRLPRPRPRPYLQPRP
shrunken log2 fold change: -0.599

RRIRKRPPRLPRPRPRPYMLPRP
shrunken log2 fold change: -0.579

RRIRKRPPRLPRPRPRPYMRPRP
shrunken log2 fold change: -0.0194

RRIRKRPPRLPRPRPRPYPCPRP
shrunken log2 fold change: -0.034

RRIRKRPPRLPRPRPRPYPDPRP
shrunken log2 fold change: -0.175

RRIRKRPPRLPRPRPRPYPHPRP
shrunken log2 fold change: -0.207

RRIRKRPPRLPRPRPRPYPLPRP
shrunken log2 fold change: -0.095

RRIRKRPPRLPRPRPRPYQGPRP
shrunken log2 fold change: -0.231

RRIRKRPPRLPRPRPRPYQHPRP
shrunken log2 fold change: -0.0857

RRIRKRPPRLPRPRPRPYRLPRP
shrunken log2 fold change: -0.212

RRIRKRPPRLPRPRPRPYRPPRP
shrunken log2 fold change: 0.0318

RRIRKRPPRLPRPRPRPYVHPRP
shrunken log2 fold change: -0.431

RRIRKRPPRLPRPRPRPYWHPRP
shrunken log2 fold change: -0.684

RRIRLRPPRLPRPRPRPAACPRP
shrunken log2 fold change: 0.267

RRIRLRPPRLPRPRPRPAAHPRP
shrunken log2 fold change: 0.163

RRIRLRPPRLPRPRPRPAATPRP
shrunken log2 fold change: 0.379

RRIRLRPPRLPRPRPRPACIPRP
shrunken log2 fold change: -0.0506

RRIRLRPPRLPRPRPRPACLPRP
shrunken log2 fold change: 0.00436

RRIRLRPPRLPRPRPRPACRPRP
shrunken log2 fold change: 0.227

RRIRLRPPRLPRPRPRPADAPRP
shrunken log2 fold change: 0.599

RRIRLRPPRLPRPRPRPADYPRP
shrunken log2 fold change: -0.0944

RRIRLRPPRLPRPRPRPAELPRP
shrunken log2 fold change: -0.172

RRIRLRPPRLPRPRPRPAFMPRP
shrunken log2 fold change: -0.112

RRIRLRPPRLPRPRPRPAFPPRP
shrunken log2 fold change: 0.0371
